Laboratory results published in the supplement of paper PMC10126150.
± gives the standard deviation of the averaged measurements.

Test system: ATP
Assay: switch fluorescence ratio, 500 uM ATP over buffer (Cy3 cluster intensity, sum of 5 cycles each) (fold (ratio)); higher = stronger signal-on switching upon ATP binding; sequences stand for … in TCGTCGGCAGCGTCAGATGTGTATAAGAGACAGTTTTTTTTTTTTTTTTTTTTTTTTT…TC
Details: aptamer strand: ATP DNA aptamer (quencher-CACCTGGGGGAGTATTGCGGAGGAAGG + anchor), 100 nM annealed; ATP concentration: 500 uM
Outline: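 Values give the fluorescence ratio for each switch-domain sequence, averaged from per-cluster ratios of summed target-cycle to summed buffer-cycle Cy3 intensity. The Cy3-labelled switching-strand clusters sat on a modified Illumina MiSeq flow-cell, were annealed to 100 nM quencher-labelled ATP aptamer, and were imaged in selection buffer, then after 15 min with 500 uM ATP at 22 °C. Five cycles ran with NaOH stripping and re-annealing between them, and clusters outside 100-1000 RFU were excluded.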
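Further: ATP exposure 15 min at 22 °C before imaging.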

Sequence	switch fluorescence ratio
ATCGATACTT	1.067 ± 0.0098
ATCGATAGTG	1 ± 0.03
ATCGATTTTT	1 ± 0.032
ATCGCGGATT	0.994 ± 0.023
ATCGCGGGCC	1.03 ± 0.036
ATCGGAACCT	2.15 ± 0.1
ATCGGACGCT	1.06 ± 0.023
ATCGGAGGTG	1.02 ± 0.062
ATCGGCAGTT	1 ± 0.015
ATCGGCATGC	1.19 ± 0.019
ATCGGGAGAC	1.27 ± 0.21
ATCGGGATAG	1.04 ± 0.044
ATCGGGGCAC	1.1 ± 0.11
ATCGGGGCGG	0.993 ± 0.031
ATCGGGTTAG	0.998 ± 0.016
ATCGGTAATT	0.997 ± 0.029
ATCGGTCATG	0.993 ± 0.013
ATCGGTGAGG	0.971 ± 0.03
ATCGGTGTGC	0.981 ± 0.069
ATCGTAGGTC	0.982 ± 0.052
ATCGTAGGTG	1.04 ± 0.12
ATCGTATACC	1.01 ± 0.022
ATCGTCATAT	1 ± 0.036

Sequence	switch fluorescence ratio
ATCGTGAGGG	1 ± 0.053
ATCGTGTGTC	0.987 ± 0.071
ATCTAGGGTC	1.01 ± 0.031
ATCTAGGTAT	1 ± 0.029
ATCTAGTACC	0.999 ± 0.046
ATCTATGATA	0.954 ± 0.011
ATCTATTATT	1.012 ± 0.006
ATCTCGCAGG	1.08 ± 0.031
ATCTCGTTA	1.04 ± 0.053
ATCTGAGTTA	1.03 ± 0.058
ATCTGATCGA	0.96 ± 0.037
ATCTGATTGA	0.97124 ± 0.00072
ATCTGGAGTT	1.01 ± 0.018
ATCTGGCGTC	0.998 ± 0.033
ATCTGGTATG	0.957 ± 0.037
ATCTGGTGCT	1.052 ± 0.0059
ATCTGTCCAG	1 ± 0.071
ATCTGTGAGG	1.019 ± 0.0063
ATCTTATCGT	0.982 ± 0.027
ATCTTCTAGT	0.953 ± 0.041
ATCTTGGACG	1.05 ± 0.027
ATCTTTACCT	1.26 ± 0.036
ATCTTTAGTA	1 ± 0.014

Sequence	switch fluorescence ratio
ATCTTTGGTA	0.9826 ± 0.0074
ATCTTTTTGT	1.014 ± 0.005
ATGAAAATAC	1.01 ± 0.03
ATGAAAATTT	1.05 ± 0.017
ATGAAAGGGA	1.02 ± 0.042
ATGAAAGTGC	1.02 ± 0.017
ATGAAATTTT	1.0061 ± 0.00088
ATGAAGCAGG	1.15 ± 0.058
ATGAAGGGGG	1.03 ± 0.042
ATGAAGGGGT	0.959 ± 0.033
ATGAATAATG	1.01 ± 0.026
ATGAATTTGC	0.979 ± 0.044
ATGAATTTGT	1.01 ± 0.032
ATGACAGGAT	1 ± 0.023
ATGACCGGGG	1.02 ± 0.023
ATGACGTATT	1.02 ± 0.052
ATGACTTCGG	0.99 ± 0.028
ATGAGAATTA	1.006 ± 0.0023
ATGAGAATTT	1.01 ± 0.049
ATGAGAGGTT	0.994 ± 0.049
ATGAGCCAGT	1.003 ± 0.004
ATGAGCGGCG	0.9917 ± 0.0012
ATGAGCTATT	1.03 ± 0.027

Sequence	switch fluorescence ratio
ATGAGGAAGT	0.987 ± 0.023
ATGAGGAATG	1.008 ± 0.0043
ATGAGGAGGG	1.02 ± 0.023
ATGAGGCATT	1.04 ± 0.016
ATGAGGCCGG	1.12 ± 0.066
ATGAGGGCTT	0.981 ± 0.055
ATGAGGGGAG	0.997 ± 0.013
ATGAGGGGGG	0.986 ± 0.031
ATGAGGGT	1.01 ± 0.015
ATGAGGTTGG	0.973 ± 0.055
ATGAGTAAGG	0.991 ± 0.013
ATGAGTAGGA	1.017 ± 0.0061
ATGAGTATGT	0.9961 ± 0.0014
ATGAGTCATT	0.987 ± 0.026
ATGAGTGCTT	0.9776 ± 0.0075
ATGATAATGT	0.985 ± 0.014
ATGATAGAGG	0.991 ± 0.025
ATGATATCTC	1.02 ± 0.047
ATGATCGGAT	0.977 ± 0.051
ATGATGAATA	0.949 ± 0.017
ATGATGCGTG	0.981 ± 0.015
ATGATGGGGG	0.984 ± 0.027
ATGATGTGGT	0.992 ± 0.022

Sequence	switch fluorescence ratio
ATGATTAATT	1.03 ± 0.017
ATGATTCGTG	0.972 ± 0.028
ATGATTGATG	1.02 ± 0.019
ATGATTGCGT	0.991 ± 0.018
ATGATTGGCA	0.99 ± 0.026
ATGATTTACT	1.02 ± 0.02
ATGATTTCGT	0.9793 ± 0.0085
ATGATTTGGG	1.01 ± 0.011
ATGCAAGGGC	1.08 ± 0.024
ATGCAAGGTT	1.01 ± 0.018
ATGCAATCAT	1.038 ± 0.0026
ATGCAATGTC	1.38 ± 0.22
ATGCACGAAG	1 ± 0.057
ATGCACGGGC	1.01 ± 0.047
ATGCACTGCT	1.04 ± 0.021
ATGCAGGTCC	1.03 ± 0.037
ATGCAGTATT	1.03 ± 0.025
ATGCATTAAG	0.992 ± 0.051
ATGCCATGTG	1 ± 0.022
ATGCCATTAA	0.9718 ± 0.0018
ATGCCCAGCT	1.0068 ± 0.00025
ATGCGAGCGG	0.985 ± 0.014
ATGCGATTTG	1 ± 0.057

Sequence	switch fluorescence ratio
ATGCGCACCG	1.05 ± 0.023
ATGCGCAGAT	1.046 ± 0.0063
ATGCGCTAAT	1.07 ± 0.013
ATGCGCTCTA	0.992 ± 0.018
ATGCGGTTTT	0.986 ± 0.03
ATGCTAGTTG	0.98924 ± 0.0007
ATGCTGAGGA	0.977 ± 0.042
ATGCTGGTAT	0.981 ± 0.024
ATGCTGGTTA	0.996 ± 0.016
ATGCTTAGTT	1.03 ± 0.051
ATGCTTATGG	0.994 ± 0.037
ATGCTTATTG	0.973 ± 0.015
ATGCTTGAAC	1.037 ± 0.0095
ATGCTTTCAG	0.983 ± 0.012
ATGGAAAATG	1.04 ± 0.037
ATGGAACGGA	1.03 ± 0.027
ATGGAAGGAT	1.005 ± 0.0065
ATGGAATAAG	0.998 ± 0.028
ATGGACGCCT	1.01 ± 0.037
ATGGACGTGT	0.9935 ± 0.0033
ATGGACTAGG	1.02 ± 0.022
ATGGAGAGGG	0.987 ± 0.037
ATGGAGATAG	1.01 ± 0.026

Sequence	switch fluorescence ratio
ATGGAGCTTG	0.983 ± 0.02
ATGGAGGCAA	1.37 ± 0.12
ATGGAGGCTT	0.975 ± 0.018
ATGGAGGGAC	1.48 ± 0.66
ATGGAGGGCA	1.03 ± 0.049
ATGGAGGGGT	1 ± 0.045
ATGGAGGTAG	0.995 ± 0.027
ATGGAGGTCT	1.01 ± 0.055
ATGGATAT	0.98 ± 0.031
ATGGATCCGG	1.03 ± 0.083
ATGGATGATG	0.991 ± 0.018
ATGGATGCGT	0.967 ± 0.015
ATGGATGGGG	0.998 ± 0.028
ATGGATTTT	1.001 ± 0.0019
ATGGCAGCAT	1.012 ± 0.0057
ATGGCCAGCA	1.01 ± 0.03
ATGGCCGGCC	1.01 ± 0.02
ATGGCCGGGA	0.999 ± 0.016
ATGGCCTATA	1.01 ± 0.028
